Assay [1] addresses T1, GST-CEACAM1 (human, UniProt P13688 35-141, limits assumed).
T1 construct: also called human CEACAM1-GST protein
T1 sequence: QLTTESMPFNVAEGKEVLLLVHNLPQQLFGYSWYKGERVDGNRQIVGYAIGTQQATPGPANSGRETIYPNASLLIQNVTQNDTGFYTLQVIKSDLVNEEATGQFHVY
Kind of assay: scFv binding ELISA on GST-CEACAM1 coated at 1.0 µg/ml, anti-HIS6-HRP and TMB. As to the method: The binding of affinity matured purified scFv to human CEACAM1 was analyzed using GST-CEACAM1. A Nunc Immuno MaxiSorp 96 well flat bottom microtitre plate was pre-coated with 1.0 μg/ml GST-CEACAM1 overnight at 4° C. The following day a two-fold dilution series of VH1/Vκ8 S29A parent scFv or test scFv (50 μg/ml to 0.8 μg/ml) in PBSB was incubated for 2 hours at RT on pre-coated ELISA plates. The binding of scFv was detected with an anti-HIS6-HRP antibody and TMB substrate. The reaction was stopped with 3 M HCl, absorbance read at 450 nm on a Dynex Technologies MRX TC II plate reader and the binding curves plotted. Parent scFv (VH1/Vκ8 S29A scFv) was included on each ELISA plate as a reference. An irrelevant scFv was included on at least one plate as a negative control. It was observed that a number of scFvs had improved binding to CEACAM1 compared to the parental VH1/Vκ8 S29A scFv. […] All 34 scFv variants were reformatted to whole IgG to provide greater accuracy with regard to purity and quantitation. The reformatting further allowed for an analysis of the avidity component of antibody binding, which is influenced by the bivalent nature of IgGs. As used herein, “avidity” is the measure of the strength of binding between an antigen-binding molecule (such as an antibody or antibody fragment thereof described herein) and the pertinent antigen.

Assay [2] addresses T2, His-tagged CEACAM1 (human, UniProt P13688 35-428).
T2 construct: 45 kDa SPR analyte; also called CEACAM1-HIS; CEACAM1 analyte
T2 sequence: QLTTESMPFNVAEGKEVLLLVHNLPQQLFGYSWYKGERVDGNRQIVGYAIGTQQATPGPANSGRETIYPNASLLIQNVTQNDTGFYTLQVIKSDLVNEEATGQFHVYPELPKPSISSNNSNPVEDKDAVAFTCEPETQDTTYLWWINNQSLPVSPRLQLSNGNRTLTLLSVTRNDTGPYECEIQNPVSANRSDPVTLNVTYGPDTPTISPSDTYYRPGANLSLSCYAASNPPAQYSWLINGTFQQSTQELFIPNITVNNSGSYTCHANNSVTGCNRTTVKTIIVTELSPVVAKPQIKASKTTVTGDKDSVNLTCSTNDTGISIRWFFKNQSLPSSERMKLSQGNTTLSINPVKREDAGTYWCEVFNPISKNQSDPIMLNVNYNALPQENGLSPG
The assay is described as follows: SPR single-cycle, purified IgG captured. The method, boiled down:
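Binding was measured by surface plasmon resonance in single-cycle kinetics mode on a Biacore T200, running in HBS-P+ (pH 7.4) at 25° C. His-tagged CEACAM1 served as analyte over purified IgG captured on a Series S Protein A chip. After subtraction of reference-channel and blank-run signals, kon, koff and Kd were fitted, and relative KD was expressed against the parent antibody from the same experiment.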

Assay [3] deals with T3, CEACAM3 on transfected HeLa cells (human, UniProt P40198 35-252).
T3 construct: whole, on cells; also called HeLa-CEACAM3; HeLa C3
T3 sequence (looked up): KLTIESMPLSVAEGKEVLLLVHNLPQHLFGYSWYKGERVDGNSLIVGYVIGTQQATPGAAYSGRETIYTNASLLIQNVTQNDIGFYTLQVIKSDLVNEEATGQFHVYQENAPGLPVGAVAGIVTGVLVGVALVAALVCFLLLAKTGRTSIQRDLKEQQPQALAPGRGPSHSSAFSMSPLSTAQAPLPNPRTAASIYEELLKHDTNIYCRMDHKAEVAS
Kind of assay: flow cytometry, HeLa-CEACAM3 transfectants, % staining, stacked bars. An excerpt: (§1) FIG. 11 illustrates the binding selectivity of different affinity-matured CEACAM1 antibodies. […] HELA cells were transfected with vector alone (HeLa-Neo) or vectors expressing CEACAM1, CEACAM3, CEACAM5, or CEACAM6, respectively, and stained with the indicated antibodies. […] MOPC=mouse IgG1 control antibody. Mouse antibodies as positive control for transfected CEACAM isoforms: Col-1=CEACAM3 and CEACAM5 antibody. 9A6=CEACAM6 antibody. T84.1=CEACAM cross-reactive antibody and T84.66=CEACAM5 antibody. Only 2nd FITC=No primary antibody, only secondary FITC conjugated antibody. […] Data for affinity-matured antibodies 9B3_8H3/Vκ8 S29A, 8H3_9B3/CP08_E05, and 8H3_9C2/CPO08_F05, as well as data for CEACAM8 antibody 80H3 were omitted from the FIG. due to an unusually high background signal.

Assay [4] has as its target T4, CEACAM5 on transfected HeLa cells (human, UniProt P06731 35-685).
T4 construct: whole, on cells; also called HeLa-CEACAM5; HeLa C5
T4 sequence (looked up): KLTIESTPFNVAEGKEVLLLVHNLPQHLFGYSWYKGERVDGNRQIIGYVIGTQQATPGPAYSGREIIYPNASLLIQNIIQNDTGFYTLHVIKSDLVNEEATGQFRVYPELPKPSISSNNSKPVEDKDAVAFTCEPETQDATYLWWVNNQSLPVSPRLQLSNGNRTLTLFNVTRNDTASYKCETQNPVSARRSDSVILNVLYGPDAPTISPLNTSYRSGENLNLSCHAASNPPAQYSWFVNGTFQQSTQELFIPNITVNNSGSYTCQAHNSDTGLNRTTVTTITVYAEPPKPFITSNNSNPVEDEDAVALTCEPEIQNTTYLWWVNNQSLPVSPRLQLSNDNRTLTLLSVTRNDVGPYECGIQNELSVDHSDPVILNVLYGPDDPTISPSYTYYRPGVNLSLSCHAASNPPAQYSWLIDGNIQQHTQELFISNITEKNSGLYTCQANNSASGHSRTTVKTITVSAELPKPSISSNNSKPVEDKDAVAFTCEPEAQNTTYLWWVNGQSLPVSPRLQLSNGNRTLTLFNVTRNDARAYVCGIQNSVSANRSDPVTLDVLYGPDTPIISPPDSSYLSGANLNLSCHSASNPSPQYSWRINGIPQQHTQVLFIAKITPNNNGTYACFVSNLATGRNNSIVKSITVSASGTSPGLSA
Kind of assay: flow cytometry, HeLa-CEACAM5 transfectants, % staining, stacked bars.
Description: as §1
(In flow cytometry, cells or beads pass a laser one at a time.)

The target in assay [5] is T5, CEACAM6 on transfected HeLa cells (human, UniProt P40199 35-320).
T5 construct: whole, on cells; also called HeLa-CEACAM6; HeLa C6
T5 sequence (looked up): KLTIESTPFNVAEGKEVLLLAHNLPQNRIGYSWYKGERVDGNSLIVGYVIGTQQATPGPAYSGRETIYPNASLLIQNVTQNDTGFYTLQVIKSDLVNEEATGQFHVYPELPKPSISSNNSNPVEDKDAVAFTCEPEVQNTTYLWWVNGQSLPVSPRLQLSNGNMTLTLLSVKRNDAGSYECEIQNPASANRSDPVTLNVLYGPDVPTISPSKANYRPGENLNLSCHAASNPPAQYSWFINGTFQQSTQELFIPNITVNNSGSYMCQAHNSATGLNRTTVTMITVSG
Kind of assay: flow cytometry, HeLa-CEACAM6 transfectants, % staining, stacked bars.
Description: as §1

Assay [6] deals with T2, His-tagged CEACAM1. The assay is described as follows: SPR single-cycle, supernatant IgG captured. The procedure, abridged:
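Antibody IgG was produced by transient PEI transfection of HEK EBNA cells in 6-well plates, with supernatants collected 5-7 days later, quantified by ELISA and filtered. Binding was measured by single-cycle surface plasmon resonance on a Biacore T200 at 25° C in HBS-P+ (pH 7.4), capturing IgG on Protein A and flowing His-tagged CEACAM1 as analyte. Kon, koff and Kd were obtained by fitting, and relative KD was expressed against the parent antibody tested in the same experiment.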

The target of assay [7] is T2, His-tagged CEACAM1. Kind of assay: SPR multi-cycle. The method, boiled down: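 Kon, koff, Kd and relative KD were derived from multi-cycle surface plasmon resonance sensorgrams recorded on a Biacore T200. Runs were at 25° C in HBS-P+ (pH 7.4), with purified antibody at 1 μg/ml captured to ~75 RU on a Series S Protein A chip. His-tagged CEACAM1 was passed over as analyte at 80 μl/min in 2-fold dilutions from 200 to 3.125 nM or from 100 to 1.5625 nM, with 50 or 150 seconds of association, 100 seconds of dissociation and glycine-HCl pH 1.5 for regeneration.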

Assay [8] has as its target T5, CEACAM6 on transfected HeLa cells. The assay is described as follows: flow cytometry, transfected HeLa.
The target in assay [9] is T6, CEACAM1 on transfected HeLa cells (human, UniProt P13688 35-526).
T6 construct: also called HeLa-CEACAM1; HeLa C1
T6 sequence: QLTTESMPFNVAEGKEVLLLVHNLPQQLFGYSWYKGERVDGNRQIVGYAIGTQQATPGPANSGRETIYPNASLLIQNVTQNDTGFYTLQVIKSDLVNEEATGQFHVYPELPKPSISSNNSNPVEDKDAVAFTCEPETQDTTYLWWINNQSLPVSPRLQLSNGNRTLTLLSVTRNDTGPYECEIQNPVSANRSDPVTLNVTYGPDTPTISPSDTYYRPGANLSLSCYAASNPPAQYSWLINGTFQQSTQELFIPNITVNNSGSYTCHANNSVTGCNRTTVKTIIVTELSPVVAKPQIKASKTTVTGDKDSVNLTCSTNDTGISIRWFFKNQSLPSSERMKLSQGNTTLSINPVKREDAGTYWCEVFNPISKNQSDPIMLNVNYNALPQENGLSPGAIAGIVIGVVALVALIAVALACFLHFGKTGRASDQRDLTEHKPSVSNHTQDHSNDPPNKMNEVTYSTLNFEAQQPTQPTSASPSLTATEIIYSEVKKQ
The assay is described as follows: flow cytometry, transfected HeLa.

Assay [10] has as its target T4, CEACAM5 on transfected HeLa cells. The assay is described as follows: flow cytometry, transfected HeLa.

B1: CP08C04 (scFv)
scFv, VH-linker-VL: EVQLLESGGGLVQPGGSLRLSCAASGFTFSSHGMSWVRQAPGKGLEWVATISSGGTYTYYPDSVKGRFTISRDNSKNTLYLQMNSLKAEDTAMYYCARHDFDYDAAWFAYWGQGTLVTVSSGGGGSGGGGSGGGGSEIVLTQSPATLSLSPGERATLSCRANSAVSYMYWYQQKPGQAPRPWIYLTSNRATGVPARFSGSGSGTDYTLTISSLEPEDFAVYYCQQWSSNPPTFGQGTKLEIK
notes: purified scFv form; the IgG form is m90
On to B1, for which the concentration for a half-maximal effect (EC50 (read off the curve)) in [1] was around 10 µg/mL.

B2: CP09F03 (scFv)
scFv, VH-linker-VL: EVQLLESGGGLVQPGGSLRLSCAASGFTFNNHGMSWVRQAPGKGLEWVATISSGGTYTYYPDSVKGRFTISRDNSKNTLYLQMNSLKAEDTAMYYCARHDFDYDAAWFAYWGQGTLVTVSSGGGGSGGGGSGGGGSEIVLTQSPATLSLSPGERATLSCRANSAVSYMYWYQQKPGQAPRPWIYLTSNRATGVPARFSGSGSGTDYTLTISSLEPEDFAVYYCQQWSSNPPTFGQGTKLEIK
notes: purified scFv form; the IgG form is m63
Turning to B2, the “EC50 (read off the curve)” value in assay [1] was around 10 µg/mL.

B3: CP08H03/CP08E05 (antibody, IgG4, V domains shown)
VH: EVQLLESGGGLVQPGGSLRLSCAASGFIFSSHGMSWVRQAPGKGLEWVATISSGGTYTYYPDSVKGRFTISRDNSKNTLYLQMNSLKAEDTAMYYCARHDFDYFPYWFAHWGQGTLVTVSS
VL: EIVLTQSPATLSLSPGERATLSCRANSAVSYMYWYQQKPGQAPRPWIYLTSNRATGVPARFSGSGSGTDYTLTISSLEPEDFAVYYCQQWTTNPPTFGQGTKLEIK
notes: IgG4 (S241P), kappa
As for B3, in assay [2], binding was put at a Kd of 110 nM, the koff turned out to be 0.008 s⁻¹, the association rate constant (kon) amounted to 76000 M⁻¹ s⁻¹ and the “relative KD to parent” value came out at 4.5. In [3], the binding result was “no binding”. Besides, the binding result in assay [4] is “no binding”. The binding result in assay [5] was “no binding”. Moreover, in assay [6], the affinity, expressed as Kd, was 120 nM; the koff is 0.0085 s⁻¹; the kon was found to be 71000 M⁻¹ s⁻¹; the “relative KD to parent” value turned out to be 4.6.

B4: VH0/Vκ0 N26Q (antibody, IgG4, name in Kabat numbering, V domains shown)
VH: EVQLVESGGDLVKPGGSLKLACAASGFIFSSHGMSWVRQTPDKRLEWVATISSGGTYTYYPDSVKGRFTISRDNDKNTLYLQMNSLKSEDTAMYYCARHDFDYDAAWFAYWGQGTLVTVSS
VL: QIVLTQSPALMSASPGVKVTMTCSAQSSVSYMYWYRQKPRSSPKPWIYLTSNLASGVPARFSGSGSGTSYSLTISSMEAEDAATYYCQQWSSNPPTFGSGTKLEIK
notes: aglycosylated chimeric, IgG4 (S241P), kappa
Regarding B4, in assay [7], the Kd amounted to 198 nM, the koff worked out at 0.0299 s⁻¹, the kon is 151000 M⁻¹ s⁻¹ and the “relative KD” value stood at 1.89. Besides, in assay [8], the “relative amount of cells bound” value came to 0.18. The “relative amount of cells bound” value in [9] stood at 79.9. Moreover, the “relative amount of cells bound” value in assay [10] was 15.5.

A word on the EC50 (read off the curve): it is the concentration needed to bring the measured effect to its halfway point. Higher therefore signals a need for much substance. As a reminder, the Kd is the equilibrium constant for the complex coming apart. Lower therefore signals a tighter complex. As a reminder, the koff is a measure of how fast the partners let go of each other. A word on the kon: it is the rate constant with which the complex forms. A low value points to slower complex formation.

The values above are taken from patent US20250074980A1 (BRIGHAM AND WOMEN S HOSPITAL, published 2025).
